The test system of test [1] is AtPRK3^LRR. In words: Gel filtration assay with AtPRK3^LRR. The class given is binding, Arabidopsis. Particulars: 4 °C 30 min, 10 mM Bis-Tris pH 6.0, 100 mM NaCl. An excerpt:
(§1) The genes of AtPRK3 ^LRR (residues 1–241), AtPRK4 ^LRR (residues 1–277), AtPRK5 ^LRR (residues 1–279), AtPRK6 ^LRR (residues 1–262), MIK1 ^LRR (residues 1–633), MIK2 ^LRR (residues 1–707) were amplified from Arabidopsis cDNA library by PCR and cloned into pFastBac-1 vector with a C-terminal 6 × His-tag. Their identities were confirmed by sequencing. The mature form of AtLURE1.1 (residues 20–94), AtLURE1.2 (residues 20–90), AtLURE1.3 (residues 21–91), and AtLURE1.4 (residues 20–90) were cloned into pFastBac-1 vector, with a modified N-terminal hemolin signal peptide and 6 × His-SUMO tag. Point mutation constructs were generated by QuickChange Site-Directed Mutagenesis Kit (Strategene). All the proteins were expressed using the Bac-to-Bac baculovirus expression system (Invitrogen) in High Five cells at 22 °C. One liter of High Five cells (2.0 × 10^6 cells mL^−1) cultured in the medium from Expression Systems was infected with 25 ml recombinant baculovirus and the media was collected after 72 h of infection. Secreted LRR proteins were purified using Ni-NTA (Novagen) and size-exclusion chromatography (Hiload 200, GE Healthcare) in buffer containing 10 mM Bis-Tris pH 6.0 and 100 mM NaCl. The His-SUMO tag of the AtLURE proteins was removed by Prescission Protease at 4 °C overnight in buffer containing 25 mM Tris pH 8.0 and 150 mM NaCl. […]

Another test has as its system AtPRK6^LRR ΔN239I240. Put plainly: In vitro pull-down with AtPRK6^LRR mutant with Asn239 and Ile240 deleted. The note with it: wild-type AtLURE1.2. It is filed as binding, Arabidopsis thaliana.
From the text: as §1, with “NaCl.” for “NaCl. The His-SUMO tag of the AtLURE proteins was removed by Prescission Protease at 4 °C overnight in buffer containing 25 mM Tris pH 8.0 and 150 mM NaCl.”
The purified His-tagged ectodomains of AtPRK proteins and MIK1, 2 were used to pull-down the AtLURE1.2 peptide. […] All the eluted samples were analyzed by SDS-PAGE and visualized by Coomassie blue staining. […]

The test system of test [2] is AtPRK3^LRR. Put plainly: ITC, AtLURE1.2 titrated into AtPRK3^LRR. It is filed as binding, Arabidopsis. The note with it: 25 °C, 200 mM HEPES pH 7.0, 100 mM NaCl, ~0.9 mM AtLURE1.2 into 0.08 mM AtPRK3^LRR.
From the text: as §1
Background: In ITC the heat of successive injections is recorded.

The test system of the next test is MIK1^LRR. Put plainly: ITC, AtLURE1.2 titrated into MIK1^LRR. It is filed as binding, Arabidopsis. The note with it: 25 °C, 200 mM HEPES pH 7.0, 100 mM NaCl, twenty injections of 0.5 mM AtLURE1.2 into 0.05 mM MIK1LRR.
From the text: as §1, with “NaCl.” for “NaCl. The His-SUMO tag of the AtLURE proteins was removed by Prescission Protease at 4 °C overnight in buffer containing 25 mM Tris pH 8.0 and 150 mM NaCl.”
Supplementary Figure 6: Binding affinity between MIK1LRR, MIK2LRR and AtLURE1.2 was not detected in ITC assay. […]

Entries after “also recorded” stand apart in the source; their conditions may differ.

B1: AtLURE1.2: mature form of AtLURE1.2 (residues 20–90), defensin-like cysteine-rich peptide expressed in insect cells (protein)
chain: TLINGSSDEERTYSFSPTTSPFDPRSLNQELKIGRIGYCFDCARACMRRGKYIRTCSFERKLCRCSISDIK
modifications: left off: His6, N-terminal, cleaved | SUMO, N-terminal, cleaved
notes: mature form of AtLURE1.2 (residues 20–90), defensin-like cysteine-rich peptide expressed in insect cells
On to B1, for which the “interaction in gel filtration” value in the test with AtPRK3^LRR [1] is on record as “none of the purified AtPRK3^LRR, MIK1^LRR or MIK2^LRR proteins showed detectable interaction”. Further, the “interaction in pull-down assay” value in the test on AtPRK6^LRR ΔN239I240 is on record as “A similar effect was observed; also recorded: significantly compromised”. Moreover, the “binding in ITC” value with AtPRK3^LRR [2] is “none of the purified AtPRK3^LRR, MIK1^LRR or MIK2^LRR proteins showed detectable interaction”; with MIK1^LRR it was “not detected; also recorded: no obvious heat was produced; also recorded: none of the purified AtPRK3^LRR, MIK1^LRR or MIK2^LRR proteins showed detectable interaction”.

(Values after publication PMC5673899, “Structural basis for receptor recognition of pollen tube attraction peptides” (Nature Communications, 2017).)
